Source: patent publication US20240199755A1, “ANTAGONISTS AND AGONISTS OF THE TRANSFERRIN RECEPTOR-2 FOR USE IN THE TREATMENT OF DISEASES OF THE BONE” (Kymab Limited, priority 2018, published 2024)

Experiments:
[1] = system: BMPs-2, 4, 6 and 7; experiment: SPR binding of BMP ligands to Tfr2-ECD immobilized on the sensor chip
Description: For this purpose, Tfr2-ECD is immobilized on a Series S Sensor Chip C1 (GE Healthcare), by means of coupling the amino groups at 25° C. The carboxyl groups on the chip surface are activated for 7 minutes using a mixture of 196 mM 1-ethyl-3-(3-dimethylaminopropyl) carbodiimide-hydrochloride and 50 mM n-hydroxysuccinimide at a flow rate of 10 μl/min. Subsequently, 5 μg/ml Tfr2-ECD, diluted with sodium acetate buffer (pH 4.5), is injected at a flow rate of 5 μl/min up to a relative occupancy of 200 RU. Non-reacted groups are inactivated by injecting 1 M thanolamine-HCl (pH 8.5) for 7 minutes at a flow rate of 10 μl/min. In order to prepare a reference surface, the same procedure is carried out but without Tfr2-ECD being injected.
The binding assays are carried out at 37° C. at a flow rate of 30 μl/min. Each analyte is diluted by a running buffer (HBS-P, pH 7.4 together with 50 nM FeCl3). BMPs are used in a concentration of 50 nM and BMP receptors are used in a concentration of 200 nM. The binding assays are carried out by means of analyte injection for 300 s over the Tfr2-ECD surface, followed by dissociation for 1000 s. The values of the binding level are read out, relative to the baseline, 10 s before the end of the injection and are corrected with respect to the molar mass. Following the dissociation for 1000 s, the chip surface is regenerated for 60 s by means of HBS-P together with 5 M NaCl and 50 mM NaOH and is stabilized for 1000 s. The binding parameters are determined using the Biacore™ T100 evaluation software 2.03.
Tfr2-ECD, BMP-2 and BMP-4 were immobilized onto Series S Sensor Chips C1 (GE Healthcare) via its amine groups at 25° C. […]
For binding analysis, an injection of analyte for 240 s or 300 s over a Tfr2-ECD surface was followed by 1000 s dissociation. The values of the binding levels were recorded from referenced signals 10 s before the end of injection relative to baseline response. […]

[2] = molecular target: T1, BMP-2 (Homo sapiens, UniProt P12643); experiment: BMP-2 competitive ELISA; format: binding; conditions: 1.5 ng/ml BMP-2 with increasing concentrations of protein
T1 sequence (P12643 283-396): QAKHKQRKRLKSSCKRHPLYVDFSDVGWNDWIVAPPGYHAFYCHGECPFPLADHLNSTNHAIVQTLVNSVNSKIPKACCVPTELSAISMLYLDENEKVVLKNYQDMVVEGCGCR
Description: In order to carry out the BMP-2-competitive ELISA, the Duo Set BMP-2 ELISA kit by R&D Systems is used.
The Duo Set BMP-2 ELISA kit from R&D Systems was used. […] After 1 h incubation at RT and extensive washing, the detection antibody was added according to the manufacturer's protocol and the amount of BMP-2 was quantified. This experiment was performed at least three independent times.

Binding of BMPs-2, 4 and 6 to Tfr2-ECD at high salt concentrations ([1]; 500 mM NaCl in running buffer): at a lower level
Binding of BMPs to immobilized Tfr2-ECD compared with holo-transferrin ([1]; BMP ligands 50 nM, 1 mg/ml holo-Tf): more avidly than holotransferrin
Binding of BMP-2 to Tfr2 relative to that of holo-Tf ([1]; BMP-2 vs holo-Tf): more than 10 fold
BMP-2 binding: signal of the BMP-2 detection antibody [2]: verified
B1: Tfr2-ECD: Recombinant full-length extracellular domain (aa 103-798) of murine Tfr2, His-tagged, expressed in Sf9 insect cells (protein, listed as Mus musculus)
chain: RGSCQACGDSVLVVDEDVNPEDSGRTTLYWSDLQAMFLRFLGEGRMEDTIRLTSLRERVAGSARMATLVQDILDKLSRQKLDHVWTDTHYVGLQFPDPAHANTLHWVDADGSVQEQLPLEDPEVYCPYSATGNATGKLVYAHYGRSEDLQDLKAKGVELAGSLLLVRVGITSFAQKVAVAQDFGAQGVLIYPDPSDFSQDPHKPGLSSHQAVYGHVHLGTGDPYTPGFPSFNQTQFPPVESSGLPSIPAQPISADIADQLLRKLTGPVAPQEWKGHLSGSPYRLGPGPDLRLVVNNHRVSTPISNIFACIEGFAEPDHYVVIGAQRDAWGPGAAKSAVGTAILLELVRTFSSMVSNGFRPRRSLLFISWDGGDFGSVGATEWLEGYLSVLHLKAVVYVSLDNSVLGDGKFHAKTSPLLVSLIENILKQVDSPNHSGQTLYEQVALTHPSWDAEVIQPLPMDSSAYSFTAFAGVPAVEFSFMEDDRVYPFLHTKEDTYENLHKMLRGRLPAVVQAVAQLAGQLLIRLSHDHLLPLDFGRYGDVVLRHIGNLNEFSGDLKERGLTLQWVYSARGDYIRAAEKLRKEIYSSERNDERLMRMYNVRIMRVEFYFLSQYVSPADSPFRHIFLGQGDHTLGALVDHLRMLRADGSGAASSRLTAGLGFQESRFRRQLALLTWTLQGAANALSGDVWNIDNNF
modifications: His tag
notes: Recombinant full-length extracellular domain (aa 103-798) of murine Tfr2, His-tagged, expressed in Sf9 insect cells
BMP-2 binding: signal of the BMP-2 detection antibody ([2]; listed as protein according to the invention): signal of the BMP-2 detection antibody reduced
